Data as given in paper PMC5722371.
Where “and” joins values, the source holds several entries; their conditions need not be identical. Identical values can stand only once. Like-named read-outs stand apart in the source and are kept apart here.

Assays:
[1] = biological target: Neisseria meningitides DMP19 (DNA mimic protein 19 kDa), tag free (Neisseria meningitides); assay: ITC; ITC200, 300 μM HU-His6 dimer in the syringe into 30 μM DMP19 monomer in the cell, 20 mM Tris pH 7.4, 50 mM NaCl, 25°C, 20 injections of 2 μl
[2] = biological target: Neisseria meningitides DMP19 (DNA mimic protein 19 kDa), tag free (Neisseria meningitides); assay: as above; remark: listed apart in the source
[3] = biological target: C-terminal His6-tagged Neisseria HU (not stated (Neisseria)); assay: SEC; Superose 12, 20 mM Tris pH 7.4, 100 mM NaCl; 750 μM HU-His6 or 1500 μM tag-free DMP19 alone, or both together; MW from Kav against four standards
[4] = biological target: HU (Haemophilus influenzae) (UniProt P43722); assay: ITC; details: cited from earlier work
[5] = biological target: Neisseria meningitides DMP19 (DNA mimic protein 19 kDa), tag free (Neisseria meningitides); assay: SEC; Superose 12, 20 mM Tris pH 7.4, 100 mM NaCl; 750 μM HU-His6 or 1500 μM tag-free DMP19 alone, or both together; MW from Kav against four standards

Substance: C-terminal His6-tagged Neisseria HU (natural protein)
- Kd [1]: 380 nM and 490 nM and 640 nM
- Kd [2]: 500 nM
- stoichiometry N [3]: 2

Substance: HI1450 (from UniProt P44199)
- Kd [4]: 3000 nM

Substance: Neisseria meningitides DMP19 (DNA mimic protein 19 kDa), tag free (natural protein)
- stoichiometry N [5]: 2
